Assays:
[1] = target: T1, human protease-activated receptor 4 (human) (UniProt Q96RI0); experiment: cell-based or functional assay
T1 sequence (looked up): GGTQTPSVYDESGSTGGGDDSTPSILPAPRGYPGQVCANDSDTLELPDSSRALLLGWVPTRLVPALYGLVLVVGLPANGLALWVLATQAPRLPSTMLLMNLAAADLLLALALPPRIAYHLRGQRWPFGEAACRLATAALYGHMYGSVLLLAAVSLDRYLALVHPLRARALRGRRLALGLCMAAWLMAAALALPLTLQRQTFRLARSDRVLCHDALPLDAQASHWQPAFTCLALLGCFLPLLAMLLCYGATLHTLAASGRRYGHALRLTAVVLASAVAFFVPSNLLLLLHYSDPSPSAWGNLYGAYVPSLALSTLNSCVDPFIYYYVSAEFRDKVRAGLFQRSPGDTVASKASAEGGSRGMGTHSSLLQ

[2] = target: human protease-activated receptor 2 (human) (UniProt P55085); experiment: cell-based or functional assay

Chain of recombinant human cathepsin S (P25774 115-331): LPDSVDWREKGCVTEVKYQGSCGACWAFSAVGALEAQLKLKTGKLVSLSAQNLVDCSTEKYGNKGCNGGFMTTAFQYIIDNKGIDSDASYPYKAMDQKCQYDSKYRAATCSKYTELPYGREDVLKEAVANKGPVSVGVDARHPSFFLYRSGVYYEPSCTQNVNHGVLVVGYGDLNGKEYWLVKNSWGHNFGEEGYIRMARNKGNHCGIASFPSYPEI

recombinant human cathepsin S (from UniProt P25774 115-331) (enzyme)
calcium flux (ratiometric Fura-2 imaging, transfected HeLa cells) [1]: 30 nM
calcium flux (ratiometric Fura-2 imaging, transfected HeLa cells) [2]: 30 nM

Reference: patent publication US20110184016A1
